The text below walks through data of patent US12697350B2, “Methods and compositions for treating a premature termination codon-mediated disorder” (Tevard Biosciences, Inc., priority 2019, dated 2026).

The subject of series [1] is EGFP-Q69X-TAA reporter. In words: 100 nt 5′ leader sequence library with GlnTTA suppressor tRNA #163, EGFP-Q69X-TAA reporter, Flp-In-293 cells (FIGS. 30, 31, 32). Format: cell-based, human. An excerpt:
FIG. 27 is a schematic representation of the constructs used to test the impact of a 5′ leader sequence on the read-through of a premature termination codon (PTC) by a suppressor tRNA. Constructs contain (i) a 100 bp 5′ leader sequence derived from genomic DNA located upstream of tRNA genes that are highly expressed in HEK293 cells, (ii) a single copy of either the ArgTCA suppressor tRNA #115 (SEQ ID NO: 18) or the GlnTTA suppressor tRNA #163 (SEQ ID NO: 45), and (iii) an RNA polymerase III termination signal (“Term”).
FIG. 30 is a graph depicting the readthrough activity of the indicated GlnTTA suppressor tRNA expression constructs as measured by flow cytometry in Flp-In-293 cells at ~24 hours post transfection. […]
FIG. 31 is a graph depicting the readthrough activity of the indicated GlnTTA suppressor tRNA expression constructs as measured by flow cytometry in Flp-In-293 cells at ~24 hours post transfection. […]
The leader sequences in combination with the ArgTCA suppressor tRNA #115 (SEQ ID NO: 18) or the GlnTTA suppressor tRNA #163 (SEQ ID NO: 45) were tested for PTC readthrough activity by flow cytometry in cell lines co-transfected with an EGFP-R96X-TGA reporter (SEQ ID NO: 31) for ArgTCA constructs or an EGFP-Q69X-TAA reporter (SEQ ID NO: 175) for GlnTTA constructs.

For series [2], the system named is Neuro-2a cells. Format: cell-based, mouse. How it is done: FIG. 23 is a graph depicting cell viability from FIG. 22 as measured by flow cytometry at ~48 hours post transfection. Neuro-2a cells were transfected with an expression construct containing the EGFP-R96X-TGA reporter (“GFP-PTC”) and either (i) transfected with an expression construct including the ArgTCA suppressor tRNA #115 (SEQ ID NO: 18) at the indicated copy number on the same construct, or (ii) treated with ataluren at the indicated concentration, (iii) treated with gentamicin at the indication concentration, or (iv) treated with G418 at the indicated concentration. For all experimental conditions, cell culture medium was replaced with fresh medium ~6 hour after transfection and the indicated drugs at the indicated concentrations were added at this point. A reporter containing wildtype GFP without a PTC (“WT-GFP”) was used as a control. “Mock” indicates mock transfected cells. “4×TCG” indicates cells transfected with an expression construct that contains four copies of a wild-type Arg-tRNA with a TCG anticodon and the EGFP-R96X-TGA reporter. Cell viability was assessed by flow cytometry using 7-Amino Actinomycin D (7-AAD), a membrane impermeant dye that is generally excluded from viable cells.
FIG. 34 is a graph depicting cell viability from FIG. 33 as measured by flow cytometry at ~48 hours post transfection. […] Cell viability was assessed by flow cytometry using 7-Amino Actinomycin D (7-AAD), a membrane impermeant dye that is generally excluded from viable cells.
FIG. 36 is a graph depicting cell viability from FIG. 35 as measured by flow cytometry at ~48 hours post transfection. […] Cell viability was assessed by flow cytometry using 7-Amino Actinomycin D (7-AAD), a membrane impermeant dye that is generally excluded from viable cells. […]

Series [3] concerns EGFP-Q69X-TAG reporter. In words: PTC readthrough of GlnCTA suppressor tRNA #196 versus nonsense suppression drugs, EGFP-Q69X-TAG reporter, Neuro-2a cells (FIG. 35). The series is classed as cell-based, mouse. To be noted: versus ataluren, gentamicin, G418 (FIG. 35). How it is done: FIG. 35 is a graph depicting the percentage of EGFP positive cells as measured by flow cytometry in three independent experiments at ~48 hours post transfection. Neuro-2a cells were transfected with an expression construct containing the EGFP-Q69X-TAG reporter (“EGFP-PTC”) (SEQ ID NO: 176) and either (i) including the GlncTA suppressor tRNA #196 (SEQ ID NO: 178) at the indicated copy number on the same construct, or (ii) treated with ataluren at the indicated concentration, (iii) treated with gentamicin at the indication concentration, or (iv) treated with G418 at the indicated concentration. […]
(§1) The suppressor tRNAs were tested alongside nonsense suppression drugs translarna (ataluren), gentamicin, and G418 (geneticin). PTC readthrough activity was measured in Neuro-2a cells ~48 hours after transfection with an expression construct containing a CAG:NLS-EGFP (Q69X-TAA) reporter (as described in Example 4, SEQ ID NO: 175) and either (i) including a Gln suppressor tRNA (either #002, tRNA-Gln-TTG-1-1-TTA-SUP, SEQ ID NO: 36, or #196, tRNA-Gln-TTG-1-1-CTA-SUP, SEQ ID NO: 178, both as described in Example 4) at the indicated copy number on the same construct, or (ii) treated with ataluren, (iii) treated with gentamicin, or (iv) treated with G418. […] PTC readthrough activity was measured as the percentage of EGFP positive cells as measured by flow cytometry. […]

For series [4], the system named is EGFP-Q69X-TAA reporter. In words: PTC readthrough of GlnTTA suppressor tRNA #002 versus nonsense suppression drugs, EGFP-Q69X-TAA reporter, Neuro-2a cells (FIG. 33). The series is classed as cell-based, mouse. To be noted: versus ataluren, gentamicin, G418 (FIG. 33). On the procedure:
FIG. 33 is a graph depicting the percentage of EGFP positive cells as measured by flow cytometry in three independent experiments at ~48 hours post transfection. Neuro-2a cells were transfected with an expression construct containing the EGFP-Q69X-TAA reporter (“EGFP-PTC”) (SEQ ID NO: 175) and either (i) including the GlnTTA suppressor tRNA #002 (SEQ ID NO: 36) at the indicated copy number on the same construct, or (ii) treated with ataluren at the indicated concentration, (iii) treated with gentamicin at the indication concentration, or (iv) treated with G418 at the indicated concentration. […]
as §1

B1: tRNA-Gln-TTG-3-1-TTA-SUP (nucleic acid)
chain: GGCCCCATGGTGTAATGGTTAGCACTCTGGACTTTAAATCCAGCGATCCGAGTTCAAATCTCGGTGGGACCT
modifications: expressed or natural sequence
Consider B1, for which the “readthrough activity when combined with the identified leader sequences” value in series [1] was “showed high readthrough activity”.

B2: tRNA-Gln-CTG-1-1-CTA-SUP (nucleic acid)
chain: GGTCCCATGGTGTAATGGTTAGCACTCTGGACTCTAAATCCAGCGATCCGAGTTCAAATCTCGGTGGGACCT
modifications: chemistry not fully specified
Take B2: the cell viability entry in series [2] is “not accompanied by a decrease in cell viability”. Moreover, the “PTC readthrough compared with nonsense suppression drugs” value in series [3] is on record as “greater readthrough than any of the nonsense suppression drugs”.

B3: tRNA-Gln-TTG-1-1-TTA-SUP (nucleic acid)
chain: GGTCCCATGGTGTAATGGTTAGCACTCTGGACTTTAAATCCAGCGATCCGAGTTCAAATCTCGGTGGGACCT
modifications: chemistry not fully specified
With B3, the “PTC readthrough compared with nonsense suppression drugs” value in series [4] is “greater readthrough than any of the nonsense suppression drugs”. In series [2], the cell viability entry is listed as “not accompanied by a decrease in cell viability”.
